Like-named read-outs stand apart in the source and are kept apart here. One block for each substance: values may come before it.
How the values were obtained:
CD155 (Homo sapiens) = CD155 (Homo sapiens) (UniProt P15151); conditions: cited from earlier work
nectin-1 (Homo sapiens) = nectin-1 (Homo sapiens) (UniProt Q15223); conditions: cited from earlier work
nectin-1(346t) (human) [1] = target: nectin-1(346t) (human) (UniProt Q15223); experiment: SPR; BIAcore 3000, 25°C, HBS-EP pH 7.4; about 2000 RU of nectin-1(346t) or nectin-1(143t) amine-coupled to a CM5 chip; hCD96t flowed at 50 ul/min, 2 min association and 2 min dissociation; 1:1 Langmuir model with drifting baseline, global fit
nectin-1(143t) (human) = experiment: as above
nectin-1(346t) (human) [2] = target: nectin-1(346t) (human) (UniProt Q15223); experiment: as above; remark: listed apart in the source

Sequence of nectin-1 (Q15223 31-355): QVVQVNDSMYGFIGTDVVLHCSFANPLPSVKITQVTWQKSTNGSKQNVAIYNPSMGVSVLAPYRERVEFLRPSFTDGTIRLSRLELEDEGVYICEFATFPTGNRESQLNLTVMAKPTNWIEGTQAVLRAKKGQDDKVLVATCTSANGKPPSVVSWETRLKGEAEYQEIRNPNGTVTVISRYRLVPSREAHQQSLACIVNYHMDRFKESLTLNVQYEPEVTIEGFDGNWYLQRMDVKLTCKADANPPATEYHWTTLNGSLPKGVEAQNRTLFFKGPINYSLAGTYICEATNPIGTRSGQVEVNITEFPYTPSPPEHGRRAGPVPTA

Substance: CD96 (from UniProt P40200)
Kd (CD155 (Homo sapiens)): 37.6 nM

Substance: nectin-1 (from UniProt Q15223)
Kd (nectin-1 (Homo sapiens)): 17500 nM

Kd (nectin-1(346t) (human) [1]): 2340 nM
Kd (nectin-1(143t) (human)): 3220 nM
koff (nectin-1(143t) (human)): 0.012 s⁻¹
kon (nectin-1(143t) (human)): 3200 M⁻¹ s⁻¹
Kd (nectin-1(346t) (human) [2]): 2430 nM
koff (nectin-1(346t) (human) [2]): 0.0094 s⁻¹
kon (nectin-1(346t) (human) [2]): 3900 M⁻¹ s⁻¹
Substance: hCD96(516t) (domain or fragment)
